Data reported in patent publication US20090280108A1, “SERUM AMYLOID A PROTEIN IN INFLAMMATION AND OBESITY” (priority 2004, published 2009).

What was measured:
[1] = tested on: adipose tissue A-SAA production; assay: Adipose organ culture: direct effect on adipose A-SAA production in vitro; conditions: rosiglitazone 1 μM; dexamethasone 25 nM and insulin 7 nM; about 48 hours, SAA production between 24 to 48 hours; n=3
[2] = tested on: mouse monocyte cell line RAW264; assay: Cytokine release from SAA-treated RAW264 monocytes (Luminex); assay type: cell-based; conditions: RAW264 cells
Protocol: (§1) Cell Culture Conditions. Primary human coronary artery endothelial cells (HCAECs) were purchased from Cambrex (Walkersville, Md.) and grown in endothelial cell basal medium-2 (EBM-2) supplemented with EGM-2 BulletKit. Experiments were conducted between the third to fifth passages. RAW264 cells (ATCC, Manassas, Va.) were grown in RPMI medium 1640 supplemented with about 10% fetal bovine serum. These cells were seeded on 6-well tissue culture plates at about 75% confluence and grown to about 90-95% confluence. The growth medium was replaced with supplement-free media (EBM-2 basal medium for HCAECs and RPMI1640 for RAW264). About one hour after the medium change, the cells were treated with recombinant human SAA (Peprotech, Rocky Hill, N.J.). The endotoxin level for this commercial preparation is advertised as less than about 0.1 ng/μg protein. The conditioned medium was collected about 8 hours after the SAA treatment by centrifugation at about 2,000×g for about 5 minutes and frozen until use for cytokine analysis.
(§2) Cytokine analysis. […] The intra- and inter-assay CV is about 5% and about 8% respectively. […] All samples were assayed in duplicate.

[3] = tested on: Primary human coronary vascular endothelial cells (HCVECs); assay: Cytokine release from SAA-treated human coronary vascular endothelial cells (Luminex / ELISA); assay type: cell-based
Protocol: as §1, §2

[4] = SAA 0.47 or 2.3 μg/ml, about 8 hours, serum-free medium, dose-dependent

## CN(CCOc1ccc(CC2SC(=O)NC2=O)cc1)c1ccccn1 (centres unmarked) [rosiglitazone]
[1]
  reduction of insulin/dexamethasone stimulation of A-SAA secretion in the media: about 70%

## lipopolysaccharide [LPS, reference compound]
[2]; LPS 1 ng/ml
  cytokine secretion (endotoxin contamination control): did not stimulate cytokine secretion
[3]; LPS 1 ng/ml
  cytokine secretion (endotoxin contamination control): did not stimulate cytokine secretion

B1: A-SAA: recombinant human SAA (Peprotech); acute-phase serum amyloid A used to treat cells (protein, UniProt P0DJI8 19-122, looked up)
Serum amyloid A-1 protein: RSFFSFLGEAFDGARDMWRAYSDMREANYIGSDKYFHARGNYDAAKRGPGGAWAAEVITDARENIQRFFGHGAEDSLADQAANEWGRSGKDPNHFRPAGLPEKY
[2]; [4]
  release of IL-6: dramatically stimulated
  release of IL-8: dramatically stimulated
  release of RANTE: dramatically stimulated
  release of TNFα: dramatically stimulated
[3]; [4]
  release of IL-6: dramatically stimulated
  release of IL-8: dramatically stimulated
  release of MCP-1: dramatically stimulated
  release of plasminogen activator inhibitor-1 (PAI-1): dramatically stimulated
